Measurements as given in US20250269045A1 (PHARMAESSENTIA, published 2025).

Assays:
[1] = molecular target: T1, granulocyte colony-stimulating factor receptor (G-CSFR) (human, UniProt Q99062 25-621, limits assumed); experiment: SPR (Biacore CM5), G-CSFR immobilised, analyte in flow, 1:1 kinetic fit
T1 construct: also called GCSF receptor; G-CSF receptor
T1 sequence (looked up): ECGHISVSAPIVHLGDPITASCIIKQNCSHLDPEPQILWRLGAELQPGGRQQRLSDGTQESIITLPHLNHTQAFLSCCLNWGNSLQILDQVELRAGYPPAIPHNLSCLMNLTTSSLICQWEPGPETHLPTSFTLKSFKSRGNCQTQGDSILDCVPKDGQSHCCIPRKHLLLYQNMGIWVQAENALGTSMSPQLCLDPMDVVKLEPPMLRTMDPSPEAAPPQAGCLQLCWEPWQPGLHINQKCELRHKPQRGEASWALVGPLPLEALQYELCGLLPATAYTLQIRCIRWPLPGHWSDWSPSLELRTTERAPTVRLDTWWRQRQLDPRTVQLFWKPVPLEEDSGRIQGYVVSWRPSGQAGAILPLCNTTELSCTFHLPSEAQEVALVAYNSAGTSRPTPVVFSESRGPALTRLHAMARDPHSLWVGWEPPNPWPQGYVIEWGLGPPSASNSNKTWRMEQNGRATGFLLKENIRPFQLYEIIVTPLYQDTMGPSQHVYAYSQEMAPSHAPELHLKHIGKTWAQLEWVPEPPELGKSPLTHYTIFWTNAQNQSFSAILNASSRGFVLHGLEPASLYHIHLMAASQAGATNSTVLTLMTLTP
Method: (§1) In this example, G-CSFR (GCSF receptors) were immobilized onto the Sensor Chip CM5 (Biacore, trademarked) as the ligand. In each testing samples, Filgrastim RS (reference standard), MetHuG-CSF, and mPEG-MetHuG-CSF, as the analyte, were flowed through the ligand on CM5 chip respectively. The titration range of test sample analytes used in the assay was 40.5, 20.2, […], 10.1, 5.1, 2.5, 1.3 and 0.6 nM. Formulation buffers of testing samples were also tested as negative controls. The binding between the ligand and the analyte was monitored through SPR sensorgram. As slow-on and slow-off sensorgrams were observed, the kinetics fit model (“1:1 binding”) was used to obtain association constant (ka) and dissociation constant (kd), and KD was calculated by kd/ka.

[2] = molecular target: T1, granulocyte colony-stimulating factor …; experiment: SPR (Biacore CM5), G-CSFR immobilised; KD divided by KD of Filgrastim RS
Method: as §1
(§2) In Table 6 below, KD values of three testing samples towards G-CSFR were determined by SPR and summarized in the unit of molar concentration (M). For the KD ratio, the KD value of each testing sample was normalized with KD of Filgrastim RS.

[3] = molecular target: T1, granulocyte colony-stimulating factor …; experiment: SPR (Biacore CM5), G-CSFR immobilised, analyte in flow, 1:1 kinetic fit, KD = kd/ka
Method: as §1

[4] = molecular target: T1, granulocyte colony-stimulating factor …; experiment: SPR (Biacore CM5), G-CSFR immobilised; this sample is the reference itself
Method: as §1, §2

| Binder | koff [1] | kon [1] | KD ratio (normalised to Filgrastim RS) [2] | Kd [3] | KD ratio (normalised to Filgrastim RS) [4] |
| --- | --- | --- | --- | --- | --- |
| mPEG-MetHuG-CSF (ligand, branched mPEG (two arms, each about 19-23 KDa; 40K-mPEG-aldehyde) covalently attached by amine linkage to the N-terminal Met (residue 1), also called P2203) MTPLGPASSLPQSFLLKCLEQVRKIQGDGAALQEKLCATYKLCHPEELVLLGHSLGIPWAPLSSCPSQALQLAGCLSQLHSGLFLYQGLLQALEGISPELGPTLDTLQLDVADFATTIWQQMEELGMAPALQPTQGAMPAFASAFQRRAGGVLVASHLQSFLEVSYRVLRHLAQP | 0.000401 s⁻¹ | 408000 M⁻¹ s⁻¹ | 1.65 | 982 pM |  |
| MetHuG-CSF (ligand, 175 aa: the 174 aa human G-CSF plus an N-terminal Met; also called MetHuG-CSF intermediate; human G-CSF with additional N-terminal Met) MTPLGPASSLPQSFLLKCLEQVRKIQGDGAALQEKLCATYKLCHPEELVLLGHSLGIPWAPLSSCPSQALQLAGCLSQLHSGLFLYQGLLQALEGISPELGPTLDTLQLDVADFATTIWQQMEELGMAPALQPTQGAMPAFASAFQRRAGGVLVASHLQSFLEVSYRVLRHLAQP | 0.000469 s⁻¹ | 657000 M⁻¹ s⁻¹ | 1.2 | 713 pM |  |
| Filgrastim Reference Standard (ligand, human, UniProt P09919-2 31-204, looked up, also called Filgrastim RS) TPLGPASSLPQSFLLKCLEQVRKIQGDGAALQEKLCATYKLCHPEELVLLGHSLGIPWAPLSSCPSQALQLAGCLSQLHSGLFLYQGLLQALEGISPELGPTLDTLQLDVADFATTIWQQMEELGMAPALQPTQGAMPAFASAFQRRAGGVLVASHLQSFLEVSYRVLRHLAQP | 0.000444 s⁻¹ | 747000 M⁻¹ s⁻¹ |  | 595 pM | 1 |
